In article PMC10042821, “Cryo-EM structure of human eIF5A-DHS complex reveals the molecular basis of hypusination-associated neurodegenerative disorders” (Nature Communications, 2023):
Numbering of substitutions follows the chain as printed.

Tests used:
Assay in all cases: MST; Monolith NT.115; 8.32 nM His-tagged DHS labelled with RED-tris-NTA, eIF5A titrated 0.00175-57.5 uM; 50 mM Tris, 200 mM NaCl, 5 mM beta-ME pH 8; free buffer
Conditions in all cases: both partners purified
[1] = molecular target: T1, deoxyhypusine synthase N173S, patient-derived variant, His-tagged (human, UniProt P49366 1-369, N173S)
T1 construct: deoxyhypusine synthase (DHS), Homo sapiens, UniProt P49366, residues 1-369, pathological variant N173S; also called DHS^N173S; source: E. coli, purified from the soluble fraction; His-tagged protein labelled with RED-tris-NTA for MST; not shown: His6, N-terminal, kept
T1 sequence (looked up): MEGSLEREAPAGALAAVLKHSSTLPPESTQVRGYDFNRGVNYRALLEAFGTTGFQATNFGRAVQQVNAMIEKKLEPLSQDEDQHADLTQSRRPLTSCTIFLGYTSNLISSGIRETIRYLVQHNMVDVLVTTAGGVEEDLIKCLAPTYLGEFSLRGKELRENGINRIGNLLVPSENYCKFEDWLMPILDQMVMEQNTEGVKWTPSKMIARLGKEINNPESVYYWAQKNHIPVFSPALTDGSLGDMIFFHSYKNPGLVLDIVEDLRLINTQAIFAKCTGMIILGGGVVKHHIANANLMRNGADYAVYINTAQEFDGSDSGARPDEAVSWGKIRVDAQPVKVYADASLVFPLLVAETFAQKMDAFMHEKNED

[2] = molecular target: T2, deoxyhypusine synthase K329A, His-tagged (human, UniProt P49366 1-369, K329A)
T2 construct: deoxyhypusine synthase (DHS), Homo sapiens, UniProt P49366, residues 1-369; also called DHS^K329A; source: E. coli, purified; His-tagged protein labelled with RED-tris-NTA for MST; not shown: His6, N-terminal, kept
T2 sequence (looked up): T1 sequence (looked up) with S173N, K329A

[3] = molecular target: T3, deoxyhypusine synthase H288A, His-tagged (human, UniProt P49366 1-369, H288A)
T3 construct: deoxyhypusine synthase (DHS), Homo sapiens, UniProt P49366, residues 1-369; source: E. coli, purified; His-tagged protein labelled with RED-tris-NTA for MST; not shown: His6, N-terminal, kept
T3 sequence (looked up): T1 sequence (looked up) with S173N, H288A

[4] = molecular target: T4, deoxyhypusine synthase W327A, His-tagged (human, UniProt P49366 1-369, W327A)
T4 construct: deoxyhypusine synthase (DHS), Homo sapiens, UniProt P49366, residues 1-369; source: E. coli, purified; His-tagged protein labelled with RED-tris-NTA for MST; not shown: His6, N-terminal, kept
T4 sequence (looked up): T1 sequence (looked up) with S173N, W327A

Kd [1]: 115 ± 22.3 nM | Kd [2]: 129 ± 37.9 nM | Kd [3]: 49.7 ± 28.7 nM | Kd [4]: 602 ± 284 nM
B1: eukaryotic translation factor 5A-1 (eIF5A-1), residues 15-151 (domain or fragment)
chain: not shown
notes: eIF5A1 (eukaryotic translation factor 5A-1), human, residues 15-151, from pET28-MHL (Addgene); The general purification removes the His tag with TEV; A His-tagged eIF5A1 was used only in the hypusination assay; source: E. coli, purified (HisTrap, TEV cleavage, reverse HisTrap, SEC); not shown: His tag, N-terminal, cleaved
